Measurements taken from publication PMC8155666, “Engineering Promiscuous Alcohol Dehydrogenase Activity of a Reductive Aminase AspRedAm for Selective Reduction of Biobased Furans” (Frontiers in Chemistry, 2021).

B1: AspRedAm (Aspergillus oryzae RIB40) (protein)
chain: MSKHIGIFGLGAMGTALAAKYLEHGYKTSVWNRTTAKAIPLVEQGAKLASTISEGVNANDLIIICLLNNQVVEDALRDALQTLPSKTIVNLTNGTPNQARKLADFVTSHGARYIHGGIMAVPTMIGSPHAVLLYSGESLELFQSIESHLSLLGMSKYLGTDAGSASLHDLALLSGMYGLFSGFLHAVALIKSGQDTSTTATGLLPLLTPWLSAMTGYLSSIAKQIDDGDYATQGSNLGMQLAGVENIIRAGEEQRVSSQMILPIKALIEQAVGEGHGGEDLSALIEYFKVGKNVD

Key:
O=Cc1ccc(CO)o1 = tested on: T1, O=Cc1ccc(CO)o1; test: purified protein; type: biochemical, Aspergillus oryzae; conditions: 0.2 mM NADH, 100 mM Tris-HCl pH 8, 30°C, 1 μM-5 mM HMF, 37 μg/ml enzyme
T1 construct: recombinant, purified

purified protein = substrate: O=Cc1ccc(CO)o1; test: purified protein; conditions: 0.2 mM NADH, 100 mM Tris-HCl pH 9, 30°C, 1 μM-5 mM HMF, 43 μg/ml enzyme

Molecule | Km (O=Cc1ccc(CO)o1) | kcat (O=Cc1ccc(CO)o1) | kcat/Km (O=Cc1ccc(CO)o1) | Km (purified protein) | kcat (purified protein) | kcat/Km (purified protein)
AspRedAm (Aspergillus oryzae RIB40; N93A) | 4.1 ± 0.7 ×10^-3 mM | 0.0967 ± 0.0076 s⁻¹ | 23600 ± 2000 M⁻¹ s⁻¹ | – | – | –
B1 | – | – | – | 1.3 ± 0.2 ×10^-3 mM | 0.0175 s⁻¹ | 13100 M⁻¹ s⁻¹
